T1: Carcinoembryonic antigen (CEA), Carcinoembryonic antigen-related cell adhesion molecule 5 (CEACAM5), on cells (human, UniProt P06731 35-685)
T1 construct: whole, on cells; also called CEA on MKN-45 cells; CEA in BxPC3 tumours
T1 sequence (looked up): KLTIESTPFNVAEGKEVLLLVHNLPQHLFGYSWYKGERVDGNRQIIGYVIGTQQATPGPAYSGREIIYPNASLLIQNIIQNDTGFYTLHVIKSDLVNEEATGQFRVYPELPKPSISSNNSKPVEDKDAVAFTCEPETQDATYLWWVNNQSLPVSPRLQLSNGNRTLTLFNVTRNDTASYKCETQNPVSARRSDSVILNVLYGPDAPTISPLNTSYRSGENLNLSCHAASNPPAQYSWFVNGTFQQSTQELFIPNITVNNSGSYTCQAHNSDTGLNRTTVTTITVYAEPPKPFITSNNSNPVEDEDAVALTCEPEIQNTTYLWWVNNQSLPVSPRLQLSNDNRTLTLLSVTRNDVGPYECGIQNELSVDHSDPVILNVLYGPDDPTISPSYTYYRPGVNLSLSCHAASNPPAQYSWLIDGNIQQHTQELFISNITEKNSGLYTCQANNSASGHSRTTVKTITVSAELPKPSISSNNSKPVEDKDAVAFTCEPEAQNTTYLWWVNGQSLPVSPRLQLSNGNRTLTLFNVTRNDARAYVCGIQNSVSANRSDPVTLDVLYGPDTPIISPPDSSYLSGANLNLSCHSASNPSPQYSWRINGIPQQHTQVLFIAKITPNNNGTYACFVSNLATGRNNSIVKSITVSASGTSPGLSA

B1: P1AF0713 (CEA CH1A1A split DOTA-VH-AST) (antibody, human IgG1, kappa, L234A L235A)
heavy 1: QVQLVQSGAEVKKPGASVKVSCKASGYTFTEFGMNWVRQAPGQGLEWMGWINTKTGEATYVEEFKGRVTFTTDTSTSTAYMELRSLRSDDTAVYYCARWDFAYYVEAMDYWGQGTTVTVSSASTKGPSVFPLAPSSKSTSGGTAALGCLVKDYFPEPVTVSWNSGALTSGVHTFPAVLQSSGLYSLSSVVTVPSSSLGTQTYICNVNHKPSNTKVDKKVEPKSCDKTHTCPPCPAPEAAGGPSVFLFPPKPKDTLMISRTPEVTCVVVDVSHEDPEVKFNWYVDGVEVHNAKTKPREEQYNSTYRVVSVLTVLHQDWLNGKEYKCKVSNKALGAPIEKTISKAKGQPREPQVCTLPPSRDELTKNQVSLSCAVKGFYPSDIAVEWESNGQPENNYKTTPPVLDSDGSFFLVSKLTVDKSRWQQGNVFSCSVMHEALHNHYTQKSLSLSPG
heavy 2: not shown
light: DIQMTQSPSSLSASVGDRVTITCKASAAVGTYVAWYQQKPGKAPKLLIYSASYRKRGVPSRFSGSGSGTDFTLTISSLQPEDFATYYCHQYYTYPLFTFGQGTKLEIKRTVAAPSVFIFPPSDEQLKSGTASVVCLLNNFYPREAKVQWKVDNALQSGNSQESVTEQDSKDSTYSLSSTLTLSKADYEKHKVYACEVTHQGLSSPVTKSFNRGEC
notes: CH1A1A anti-CEA IgG1 (knob-into-hole); also called CEA specific SPLIT antibody; P6_B

Legend:
[1] = biological target: T1, Carcinoembryonic antigen (CEA), …; test: flow cytometry on MKN-45 cells, detection with anti-huIgG(H+L)-Alexa488
Description: MKN-45 cells were detached from the culture bottle using Trypsin and were counted using a Casy cell counter. After pelleting at 4° C., 300 g the cells were resuspended in FACS Buffer (2.5% FCS in PBS), adjusted to 2.0E+06 cells/mL dispensed to 96-well PP V-bottom-Platte (25 μL/well=5.0E+04 Zellen/well).
Both antibodies were added to the cells either separated followed by buffer or combined and incubated at 4° C. for 1 h. The cells were then washed twice in FACS buffer. After washing, the cells were resuspended in 50 μL FACS-buffer containing secondary antibody (<huIgG(H+L)>-Alexa488, c=10 μg/mL) and incubated 1 h at 4° C. The cells were then washed twice in FACS buffer and resuspended in 70 μl/well FACS buffer for measurement using a FACS Canto (BD, Pharmingen).

[2] = biological target: B1; test: cell-based or functional assay
[3] = biological target: T1, Carcinoembryonic antigen (CEA), …; test: FACS on MKN-45 cells; hemibody mixed 1:1 with human ISO control; detection with anti-human IgG(H+L) secondary antibody
Description: To assess the functionality of the split antibodies or hemibodies, MKN-45 cells were detached from the culture vessel using accutase at 37° C. for 10 minutes. Subequently, the cells were washed twice in PBS, and seeded into 96 well v-bottom plates to a final density of 4×10⁶ cells/well.
Subsequently, the cells were incubated for 1 h on ice and washed twice in PBS. The cell pellet was resuspended and 40 μl/well of detection reagent was added, either <human IgG(H+L)>FITC, (10 μg/ml) or Pb_Dotam_FITC 1:100=>(10 μg/ml) in PBS/5% FCS. After 60 min incubation on ice, the cells were washed twice in PBS and resuspended in 200 μl PBS/5% FCS for measurement of FITC fluorescence using a FACS canto.

Binder	EC50 [1]	EC50 µg/ml absolute, DOTA-FITC (Pb-DOTA-FITC detection on MKN-45 cells, FACS) [2]	EC50 (read off the curve) [3]
P1AF0712 (CEA CH1A1A split DOTA-VL) (antibody, human IgG1, kappa, L234A L235A, CH1A1A anti-CEA IgG1 (knob-into-hole); also called CEA specific SPLIT antibody; P6_A) heavy 1: not shown heavy 2: QVQLVQSGAEVKKPGASVKVSCKASGYTFTEFGMNWVRQAPGQGLEWMGWINTKTGEATYVEEFKGRVTFTTDTSTSTAYMELRSLRSDDTAVYYCARWDFAYYVEAMDYWGQGTTVTVSSASTKGPSVFPLAPSSKSTSGGTAALGCLVKDYFPEPVTVSWNSGALTSGVHTFPAVLQSSGLYSLSSVVTVPSSSLGTQTYICNVNHKPSNTKVDKKVEPKSCDKTHTCPPCPAPEAAGGPSVFLFPPKPKDTLMISRTPEVTCVVVDVSHEDPEVKFNWYVDGVEVHNAKTKPREEQYNSTYRVVSVLTVLHQDWLNGKEYKCKVSNKALGAPIEKTISKAKGQPREPQVCTLPPSRDELTKNQVSLSCAVKGFYPSDIAVEWESNGQPENNYKTTPPVLDSDGSFFLVSKLTVDKSRWQQGNVFSCSVMHEALHNHYTQKSLSLSPGGGGGSGGGGSGGGGSGGGGSQAVVIQESALTTPPGETVTLTCGSSTGAVTASNYANWVQEKPDHLFTGLIGGHNNRPPGVPARFSGSLIGDKAALTIAGTQTEDEAIYFCALWYSDHWVIGGGTKLTVL light: DIQMTQSPSSLSASVGDRVTITCKASAAVGTYVAWYQQKPGKAPKLLIYSASYRKRGVPSRFSGSGSGTDFTLTISSLQPEDFATYYCHQYYTYPLFTFGQGTKLEIKRTVAAPSVFIFPPSDEQLKSGTASVVCLLNNFYPREAKVQWKVDNALQSGNSQESVTEQDSKDSTYSLSSTLTLSKADYEKHKVYACEVTHQGLSSPVTKSFNRGEC	2.7 µg/mL	2.4 µg/mL	
CEA-split-DOTAM-VH P1AD8749 (antibody, human IgG1, kappa, L234A L235A, CH1A1A anti-CEA IgG1 (knob-into-hole, PG LALA); Both heavy chains carry VH-CH1, so the light chain pairs with each; also called PRIT Split Antibody with DOTAM-VH; hemibody) heavy 1: QVQLVQSGAEVKKPGASVKVSCKASGYTFTEFGMNWVRQAPGQGLEWMGWINTKTGEATYVEEFKGRVTFTTDTSTSTAYMELRSLRSDDTAVYYCARWDFAYYVEAMDYWGQGTTVTVSSASTKGPSVFPLAPSSKSTSGGTAALGCLVKDYFPEPVTVSWNSGALTSGVHTFPAVLQSSGLYSLSSVVTVPSSSLGTQTYICNVNHKPSNTKVDKKVEPKSCDKTHTCPPCPAPEAAGGPSVFLFPPKPKDTLMISRTPEVTCVVVDVSHEDPEVKFNWYVDGVEVHNAKTKPREEQYNSTYRVVSVLTVLHQDWLNGKEYKCKVSNKALGAPIEKTISKAKGQPREPQVCTLPPSRDELTKNQVSLSCAVKGFYPSDIAVEWESNGQPENNYKTTPPVLDSDGSFFLVSKLTVDKSRWQQGNVFSCSVMHEALHNHYTQKSLSLSPG heavy 2: not shown light: DIQMTQSPSSLSASVGDRVTITCKASAAVGTYVAWYQQKPGKAPKLLIYSASYRKRGVPSRFSGSGSGTDFTLTISSLQPEDFATYYCHQYYTYPLFTFGQGTKLEIKRTVAAPSVFIFPPSDEQLKSGTASVVCLLNNFYPREAKVQWKVDNALQSGNSQESVTEQDSKDSTYSLSSTLTLSKADYEKHKVYACEVTHQGLSSPVTKSFNRGEC			~1 µg/mL
B1	2.3 µg/mL		

Reference: patent publication US20230272116A1 (Hoffmann-La Roche, published 2023)
